Assay results reported in patent US20170368189.

What was measured:
[1] = biological target: T1, Permanent N-terminal CNP-34 PEG 5 kDa conjugate 14e (not fully specified)
T1 chain: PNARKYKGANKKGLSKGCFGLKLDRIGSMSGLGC

[2] = biological target: T2, Permanent N-terminal CNP-38 PEG 5 kDa conjugate 15e (not fully specified)
T2 chain: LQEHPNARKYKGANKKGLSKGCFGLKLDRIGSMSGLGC

[3] = biological target: T3, Permanent Lys26 CNP-38 PEG4x10 kDa conjugate 12g (not fully specified)
T3 chain: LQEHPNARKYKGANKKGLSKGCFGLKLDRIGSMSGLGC

Measured: half life norm. [h] (in vitro NEP digest)

B1: recombinant human Neutral Endopeptidase (NEP) (protein)
chain: YDDGICKSSDCIKSAARLIQNMDATTEPCTDFFKYACGGWLKRNVIPETSSRYGNFDILRDELEVVLKDVLQEPKTEDIVAVQKAKALYRSCINESAIDSRGGEPLLKLLPDIYGWPVATENWEQKYGASWTAEKAIAQLNSKYGKKVLINLFVGTDDKNSVNHVIHIDQPRLGLPSRDYYECTGIYKEACTAYVDFMISVARLIRQEERLPIDENQLALEMNKVMELEKEIANATAKPEDRNDPMLLYNKMTLAQIQNNFSLEINGKPFSWLNFTNEIMSTVNISITNEEDVVVYAPEYLTKLKPILTKYSARDLQNLMSWRFIMDLVSSLSRTYKESRNAFRKALYGTTSETATWRRCANYVNGNMENAVGRLYVEAAFAGESKHVVEDLIAQIREVFIQTLDDLTWMDAETKKRAEEKALAIKERIGYPDDIVSNDNKLNNEYLELNYKEDEYFENIIQNLKFSQSKQLKKLREKVDKDEWISGAAVVNAFYSSGRNQIVFPAGILQPPFFSAQQSNSLNYGGIGMVIGHEITHGFDDNGRNFNKDGDLVDWWTQQSASNFKEQSQCMVYQYGNFSWDLAGGQHLNGINTLGENIADNGGLGQAYRAYQNYIKKNGEEKLLPGLDLNHKQLFFLNFAQVWCGTYRPEYAVNSIKTDVHSPGNFRIIGTLQNSAEFSEAFHCRKNSYMNPEKKCRVW
Almost no proteolysis after 4 days.: all assays above
